Test results from patent US7176008.

What was measured:
[1] = molecular target: human carboxypeptidase N (human) (UniProt P15169)
thrombin = experiment: cell-based or functional assay

Chain of human carboxypeptidase N (human) (P15169 21-458 limits assumed, chain 1 of 2): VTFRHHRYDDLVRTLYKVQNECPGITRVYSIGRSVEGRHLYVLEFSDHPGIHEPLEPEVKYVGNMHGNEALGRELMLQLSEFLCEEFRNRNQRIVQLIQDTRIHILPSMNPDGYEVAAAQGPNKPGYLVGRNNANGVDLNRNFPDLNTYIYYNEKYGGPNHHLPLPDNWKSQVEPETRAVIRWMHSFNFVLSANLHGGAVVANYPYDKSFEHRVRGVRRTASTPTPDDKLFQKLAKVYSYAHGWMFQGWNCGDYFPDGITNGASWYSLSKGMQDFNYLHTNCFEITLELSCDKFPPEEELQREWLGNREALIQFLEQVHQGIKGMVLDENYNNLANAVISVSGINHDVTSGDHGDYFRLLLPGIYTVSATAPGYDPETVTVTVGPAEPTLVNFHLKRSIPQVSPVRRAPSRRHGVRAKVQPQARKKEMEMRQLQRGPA
Chain of human carboxypeptidase N (human) (P22792 22-545 limits assumed, chain 2 of 2, further chain): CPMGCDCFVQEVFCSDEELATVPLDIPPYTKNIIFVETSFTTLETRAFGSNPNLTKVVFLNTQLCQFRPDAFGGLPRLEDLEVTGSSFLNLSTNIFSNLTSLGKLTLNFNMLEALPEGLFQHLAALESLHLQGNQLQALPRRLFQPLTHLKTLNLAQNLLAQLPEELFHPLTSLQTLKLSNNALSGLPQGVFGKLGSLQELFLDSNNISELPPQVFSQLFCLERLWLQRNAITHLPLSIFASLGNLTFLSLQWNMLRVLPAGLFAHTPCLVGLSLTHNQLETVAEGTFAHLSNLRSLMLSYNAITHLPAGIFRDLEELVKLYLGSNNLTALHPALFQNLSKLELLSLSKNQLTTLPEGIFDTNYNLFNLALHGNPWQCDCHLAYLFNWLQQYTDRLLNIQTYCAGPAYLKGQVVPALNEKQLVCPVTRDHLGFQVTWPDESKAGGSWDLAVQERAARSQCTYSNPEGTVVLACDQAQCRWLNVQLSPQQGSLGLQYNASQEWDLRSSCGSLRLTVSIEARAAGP

| Ki [1] [nM] | increase of TAFIa generation in diluted human plasma (thrombin) [fold] | Substance |
| --- | --- | --- |
| 970 | – | protamine sulfate (grade X from salmon, Mr 5,000) (peptide) |
| – | 30 to 35 | rabbit lung thrombomodulin |
